Experimental data from the supplement of paper PMC10724198.
± gives the standard deviation of the averaged measurements.

Assays:
[1] = tested on: Saccharomyces cerevisiae; assay: protein stability index of tFT-peptide fusion (C-terminal peptide) (PSI (0-1 scale)); higher = more stable (slower turnover)
Procedure: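 MPS profiling in S. cerevisiae of the tFT-X12 degron library: putative degron peptides plus stable controls, 12 aa, fused to the C-terminus of a sfGFP-mCherry timer. Cells are FACS-sorted into 8 mCherry/sfGFP bins and deep-sequenced. PSI runs from 0 (unstable) to 1 (stable). Backgrounds are wild type, das1Δ and doa10Δ at 30 °C, and wild type, das1Δ, cdc34-1 and cdc53-1 at 37 °C; 2-3 technical replicates each.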

[2] = tested on: Saccharomyces cerevisiae; assay: as above; details: genetic background: wild type; temperature: 30 C
[3] = genetic background: cdc34-1, temperature: 37 C
[4] = genetic background: cdc53-1, temperature: 37 C
[5] = genetic background: das1 deletion, temperature: 30 C
[6] = genetic background: das1 deletion, temperature: 37 C
[7] = genetic background: doa10 deletion, temperature: 30 C
[8] = genetic background: wild type, temperature: 30 C
[9] = genetic background: wild type, temperature: 37 C
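Further: PSI is a weighted mean of sequencing reads over stability bins, variants kept only with over 10 reads, mCherry proximal and sfGFP distal, peptide attached via GGGS linker.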

Sequence	protein stability index [1, 3]	protein stability index [1, 4]	protein stability index [1, 5]	protein stability index [1, 6]	protein stability index [1, 7]	protein stability index [1, 8]	protein stability index [1, 9]	protein stability index [2]
LFHSIPRLLLLK	0.0746 ± 0.013	0.0485 ± 0.0081	0.23 ± 0.087	0.27 ± 0.04	0.627 ± 0.0064	0.241 ± 0.033	0.218 ± 0.041	0.367 ± 0.053
LFKFCLGIPLFL	0.51 ± 0.026	0.522 ± 0.029	0.412 ± 0.037	0.576 ± 0.006	0.4179 ± 0.004	0.402 ± 0.029	0.559 ± 0.014	0.479 ± 0.038
LFLSAFFYLLVW	0.199 ± 0.0028	0.2233 ± 0.0014	0.245 ± 0.029	0.341 ± 0.0047	0.277 ± 0.0047	0.238 ± 0.014	0.3077 ± 0.002	0.284 ± 0.039
LFLVLFCVVGFV	0.234 ± 0.036	0.311 ± 0.031	0.226 ± 0.027	0.377 ± 0.0076	0.222 ± 0.0075	0.219 ± 0.02	0.337 ± 0.011	0.282 ± 0.0047
LFSFFVFFFLLD	0.358 ± 0.086	0.446 ± 0.0062	0.364 ± 0.044	0.522 ± 0.031	0.375 ± 0.005	0.37 ± 0.031	0.476 ± 0.02	0.435 ± 0.034
LFTRWSILFKLF	0.335 ± 0.075	0.357 ± 0.058	0.559 ± 0.032	0.694 ± 0.052	0.0889 ± 0.025	0.0908 ± 0.012	0.136 ± 0.015	0.132 ± 0.0026
LGDPPCRMIVVR	0.532 ± 0.026	0.58581 ± 4.2e-05	0.353 ± 0.038	0.5869 ± 0.0044	0.339 ± 0.011	0.376 ± 0.026	0.558 ± 0.0075	0.466 ± 0.033
LGGVEDRWRTAT	0.653 ± 0.05	0.704 ± 0.0094	0.693 ± 0.032	0.7227 ± 0.0051	0.261 ± 0.016	0.296 ± 0.025	0.534 ± 0.008	0.365 ± 0.0037
LGRLDYKRMKRA	0.7464 ± 0.0014	0.748 ± 0.024	0.641 ± 0.033	0.7434 ± 0.0068	0.477 ± 0.017	0.51 ± 0.021	0.618 ± 0.046	0.533 ± 0.076
LGSYIFVVVIYF	0.152 ± 0.011	0.228 ± 0.0032	0.168 ± 0.032	0.291 ± 0.0044	0.141 ± 0.0079	0.143 ± 0.033	0.253 ± 0.0056	0.283 ± 0.15
LGSYVWVFVYFW	0.159 ± 0.022	0.258 ± 0.0054	0.155 ± 0.039	0.323 ± 0.01	0.148 ± 0.0054	0.151 ± 0.028	0.267 ± 0.025	0.187 ± 0.051
LHIHGAGIVCAG	0.549 ± 0.026	0.584 ± 0.029	0.368 ± 0.032	0.5788 ± 0.001	0.318 ± 0.0044	0.374 ± 0.029	0.5491 ± 0.0022	0.467 ± 0.028
LICRFLFFVCVG	0.412 ± 0.024	0.451 ± 0.0053	0.377 ± 0.023	0.507 ± 0.0068	0.277 ± 0.011	0.278 ± 0.02	0.441 ± 0.03	0.394 ± 0.04
LILLTFTLRVPV	0.192 ± 0.0027	0.381 ± 0.046	0.233 ± 0.02	0.4028 ± 0.0024	0.2056 ± 0.001	0.227 ± 0.026	0.362 ± 0.018	0.361 ± 0.034
LLCLCSLPVFAS	0.317 ± 0.014	0.319 ± 0.029	0.26 ± 0.046	0.4118 ± 0.0028	0.223 ± 0.009	0.27 ± 0.018	0.368 ± 0.0076	0.356 ± 0.016
LLFLLSPFNFAV	0.651 ± 0.035	0.726 ± 0.0084	0.63 ± 0.022	0.737 ± 0.0093	0.2535 ± 0.0025	0.303 ± 0.017	0.524 ± 0.03	0.328 ± 0.07
LLFTFSLSFFFR	0.405 ± 0.036	0.467 ± 0.0087	0.445 ± 0.048	0.438 ± 0.0076	0.458 ± 0.018	0.42 ± 0.022	0.45 ± 0.022	0.445 ± 0.014
LLLHFMFSIFWF	0.3811 ± 0.00039	0.375 ± 0.032	0.327 ± 0.034	0.4583 ± 0.0021	0.378 ± 0.011	0.324 ± 0.016	0.42 ± 0.011	0.378 ± 0.023
LLMWVLFDCHYS	0.39 ± 0.017	0.542 ± 0.034	0.318 ± 0.035	0.552 ± 0.011	0.306 ± 0.01	0.322 ± 0.023	0.535 ± 0.013	0.396 ± 0.012
LLPTSVFLPSLF	0.6907 ± 0.0038	0.7726 ± 0.0059	0.663 ± 0.012	0.768 ± 0.014	0.282 ± 0.0082	0.331 ± 0.021	0.578 ± 0.018	0.489 ± 0.0069

Sequence	protein stability index [1, 3]	protein stability index [1, 4]	protein stability index [1, 5]	protein stability index [1, 6]	protein stability index [1, 7]	protein stability index [1, 8]	protein stability index [1, 9]	protein stability index [2]
LLRIFLPLLYLL	0.203 ± 0.062	0.199 ± 0.011	0.329 ± 0.037	0.387 ± 0.016	0.218 ± 0.0076	0.131 ± 0.021	0.2 ± 0.00044	0.194 ± 0.019
LLSFYFVLAYMV	0.357 ± 0.034	0.393 ± 0.026	0.32 ± 0.035	0.4765 ± 0.00078	0.197 ± 0.024	0.179 ± 0.02	0.3 ± 0.0065	0.28 ± 0.056
LLSYMVSLVVYL	0.127 ± 0.04	0.231 ± 0.03	0.175 ± 0.032	0.338 ± 0.024	0.16 ± 0.028	0.166 ± 0.031	0.291 ± 0.004	0.295 ± 0.0062
LLYYQVFKTRRL	0.674 ± 0.021	0.686 ± 0.037	0.63 ± 0.026	0.696 ± 0.034	0.3565 ± 0.0012	0.384 ± 0.022	0.5958 ± 0.0036	0.406 ± 0.25
LNQRGKRKYLIM	0.711 ± 0.058	0.751 ± 0.054	0.656 ± 0.038	0.723 ± 0.016	0.372 ± 0.012	0.412 ± 0.024	0.561 ± 0.034	0.452 ± 0.015
LNTVALIRIVVS	0.0601 ± 0.033	0.132 ± 0.015	0.18 ± 0.021	0.234 ± 0.0055	0.125 ± 0.015	0.137 ± 0.036	0.19 ± 0.008	0.236 ± 0.006
LPILFPAALRLY	0.552 ± 0.0097	0.577 ± 0.028	0.521 ± 0.025	0.604 ± 0.01	0.267 ± 0.013	0.285 ± 0.026	0.455 ± 0.029	0.44 ± 0.02
LPPPYSPRLFHN	0.552 ± 0.065	0.7103 ± 0.0065	0.699 ± 0.014	0.755 ± 0.022	0.146 ± 0.016	0.166 ± 0.016	0.265 ± 0.01	0.241 ± 0.1
LPTVSRPGALIC	0.562 ± 0.016	0.689 ± 0.032	0.626 ± 0.033	0.69 ± 0.011	0.144 ± 0.0049	0.192 ± 0.02	0.34 ± 0.038	0.253 ± 0.013
LRCRAATSRTVS	0.69 ± 0.029	0.738 ± 0.015	0.6731 ± 0.002	0.726 ± 0.03	0.391 ± 0.015	0.446 ± 0.025	0.643 ± 0.0087	0.504 ± 0.04
LRNYKCLRLLIC	0.293 ± 0.009	0.476 ± 0.0082	0.394 ± 0.028	0.545 ± 0.022	0.0736 ± 0.0054	0.0688 ± 0.012	0.0753 ± 0.012	0.0682 ± 0.096
LRPTFLLLFRPL	0.292 ± 0.022	0.283 ± 0.037	0.377 ± 0.032	0.474 ± 0.011	0.618 ± 0.004	0.407 ± 0.017	0.4302 ± 0.0023	0.493 ± 0.096
LRSLLIIYLLIF	0.2561 ± 0.0023	0.292 ± 0.025	0.253 ± 0.038	0.404 ± 0.0084	0.203 ± 0.0043	0.192 ± 0.0044	0.31 ± 0.012	0.279 ± 0.039
LSACYSRYVFVS	0.398 ± 0.039	0.553 ± 0.038	0.472 ± 0.016	0.60517 ± 0.00057	0.0584 ± 0.017	0.093 ± 0.023	0.115 ± 0.012	0.135 ± 0.0089
LSASFYFVFFSN	0.56 ± 0.013	0.6731 ± 0.0018	0.506 ± 0.023	0.6287 ± 0.006	0.155 ± 0.032	0.188 ± 0.0085	0.383 ± 0.021	0.292 ± 0.043
LSILLFVQFFPP	0.317 ± 0.023	0.371 ± 0.0032	0.27 ± 0.021	0.4113 ± 0.00046	0.24 ± 0.0013	0.253 ± 0.012	0.384 ± 0.0082	0.305 ± 0.0053
LSLPTPLPSPPA	0.656 ± 0.044	0.695 ± 0.041	0.457 ± 0.027	0.629 ± 0.015	0.449 ± 0.019	0.456 ± 0.017	0.591 ± 0.0092	0.48 ± 0.022
LSPLSPLLFRLI	0.482 ± 0.04	0.509 ± 0.012	0.516 ± 0.055	0.62 ± 0.018	0.249 ± 0.0059	0.226 ± 0.013	0.37479 ± 6.6e-05	0.296 ± 0.016
LSRLIFKVSVLM	0.57 ± 0.0078	0.602 ± 0.0096	0.504 ± 0.026	0.5999 ± 0.0032	0.237 ± 0.032	0.231 ± 0.025	0.416 ± 0.038	0.445 ± 0.015
